According to PMC12358912, “NIPBL and STAG1 enable loop extrusion by providing differential DNA–cohesin affinity” (Proceedings of the National Academy of Sciences of the …, 2024):

Columns and labels:
[1] = target: T1, SMC1/SMC3/SCC1 cohesin Trimer (UniProt Q14683 1-1233; Q9UQE7 1-1217; O60216 1-631); assay: mass photometry; in solution; KD from evaluating the individual mass distributions of the STAG1 and cohesin Trimer mixtures directly (single-shot); settings: both partners purified
T1 construct: SMC1 subunit of the cohesin Trimer; SMC3 subunit of the cohesin Trimer; kleisin SCC1 (also known as RAD21 or Mcd1) of the cohesin Trimer; also called the cohesin Trimer; Trimer (SMC1/SMC3/SCC); copies: + +
T1 sequence (Q14683 whole entry, chain 1 of 3): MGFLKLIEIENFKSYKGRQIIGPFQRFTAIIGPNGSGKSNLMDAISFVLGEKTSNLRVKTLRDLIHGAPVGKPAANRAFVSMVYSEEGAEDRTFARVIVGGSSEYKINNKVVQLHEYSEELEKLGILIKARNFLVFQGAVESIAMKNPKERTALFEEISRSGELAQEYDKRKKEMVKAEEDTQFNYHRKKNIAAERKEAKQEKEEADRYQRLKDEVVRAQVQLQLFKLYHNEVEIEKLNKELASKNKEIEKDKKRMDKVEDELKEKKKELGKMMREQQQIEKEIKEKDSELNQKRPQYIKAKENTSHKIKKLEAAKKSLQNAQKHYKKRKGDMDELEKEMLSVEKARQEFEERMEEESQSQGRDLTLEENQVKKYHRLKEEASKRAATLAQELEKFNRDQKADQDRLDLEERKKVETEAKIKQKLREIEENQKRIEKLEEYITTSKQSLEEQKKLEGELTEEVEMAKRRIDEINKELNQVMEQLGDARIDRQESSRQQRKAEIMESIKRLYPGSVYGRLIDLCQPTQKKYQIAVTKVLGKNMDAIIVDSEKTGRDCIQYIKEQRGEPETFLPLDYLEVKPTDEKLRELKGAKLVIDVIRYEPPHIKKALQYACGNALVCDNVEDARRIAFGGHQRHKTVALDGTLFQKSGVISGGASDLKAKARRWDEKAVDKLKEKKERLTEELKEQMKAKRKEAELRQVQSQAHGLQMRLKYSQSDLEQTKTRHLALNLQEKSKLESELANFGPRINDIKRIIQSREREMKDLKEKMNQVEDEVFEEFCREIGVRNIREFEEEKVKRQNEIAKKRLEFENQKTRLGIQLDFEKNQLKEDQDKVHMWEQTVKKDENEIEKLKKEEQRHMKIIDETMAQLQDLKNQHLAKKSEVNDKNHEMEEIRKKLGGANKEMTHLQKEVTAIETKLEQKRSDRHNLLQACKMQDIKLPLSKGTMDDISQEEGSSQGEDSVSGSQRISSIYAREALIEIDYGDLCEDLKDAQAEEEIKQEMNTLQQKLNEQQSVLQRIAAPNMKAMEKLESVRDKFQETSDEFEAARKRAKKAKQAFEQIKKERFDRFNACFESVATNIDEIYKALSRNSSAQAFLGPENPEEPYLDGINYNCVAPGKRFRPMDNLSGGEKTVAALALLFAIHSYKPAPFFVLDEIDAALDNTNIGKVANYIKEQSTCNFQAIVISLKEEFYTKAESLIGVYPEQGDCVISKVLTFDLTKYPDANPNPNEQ
T1 sequence (Q9UQE7 whole entry, chain 2 of 3): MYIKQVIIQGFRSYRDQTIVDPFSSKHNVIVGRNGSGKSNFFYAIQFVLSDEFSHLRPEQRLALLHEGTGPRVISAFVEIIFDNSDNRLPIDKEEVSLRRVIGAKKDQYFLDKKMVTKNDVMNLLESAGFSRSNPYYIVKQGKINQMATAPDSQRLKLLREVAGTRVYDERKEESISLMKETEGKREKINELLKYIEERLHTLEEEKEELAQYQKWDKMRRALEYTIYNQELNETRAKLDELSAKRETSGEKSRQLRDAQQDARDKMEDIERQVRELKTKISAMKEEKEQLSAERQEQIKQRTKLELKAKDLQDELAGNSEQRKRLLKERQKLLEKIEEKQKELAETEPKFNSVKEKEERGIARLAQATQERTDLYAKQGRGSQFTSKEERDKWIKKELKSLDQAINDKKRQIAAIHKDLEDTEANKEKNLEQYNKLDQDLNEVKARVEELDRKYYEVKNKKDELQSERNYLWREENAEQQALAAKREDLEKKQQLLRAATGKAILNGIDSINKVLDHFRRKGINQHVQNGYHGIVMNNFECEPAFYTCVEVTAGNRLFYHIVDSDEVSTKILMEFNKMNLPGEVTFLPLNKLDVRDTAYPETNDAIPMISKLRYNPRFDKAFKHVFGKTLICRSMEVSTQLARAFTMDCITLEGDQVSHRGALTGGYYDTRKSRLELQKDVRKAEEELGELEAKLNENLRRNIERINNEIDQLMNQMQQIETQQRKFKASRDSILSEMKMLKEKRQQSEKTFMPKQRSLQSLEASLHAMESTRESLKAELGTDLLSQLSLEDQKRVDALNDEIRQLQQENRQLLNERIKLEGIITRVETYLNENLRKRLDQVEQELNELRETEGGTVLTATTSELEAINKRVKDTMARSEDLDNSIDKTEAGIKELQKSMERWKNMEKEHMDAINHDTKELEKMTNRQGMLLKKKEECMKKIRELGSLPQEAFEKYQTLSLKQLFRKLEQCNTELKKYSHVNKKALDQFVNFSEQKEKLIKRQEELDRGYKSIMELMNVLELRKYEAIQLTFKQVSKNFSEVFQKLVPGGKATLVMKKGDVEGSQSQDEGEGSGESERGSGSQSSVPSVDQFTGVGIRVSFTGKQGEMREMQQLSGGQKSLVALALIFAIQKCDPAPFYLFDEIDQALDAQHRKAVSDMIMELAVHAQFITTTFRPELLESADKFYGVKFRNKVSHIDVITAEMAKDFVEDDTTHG
T1 sequence (O60216 whole entry, chain 3 of 3): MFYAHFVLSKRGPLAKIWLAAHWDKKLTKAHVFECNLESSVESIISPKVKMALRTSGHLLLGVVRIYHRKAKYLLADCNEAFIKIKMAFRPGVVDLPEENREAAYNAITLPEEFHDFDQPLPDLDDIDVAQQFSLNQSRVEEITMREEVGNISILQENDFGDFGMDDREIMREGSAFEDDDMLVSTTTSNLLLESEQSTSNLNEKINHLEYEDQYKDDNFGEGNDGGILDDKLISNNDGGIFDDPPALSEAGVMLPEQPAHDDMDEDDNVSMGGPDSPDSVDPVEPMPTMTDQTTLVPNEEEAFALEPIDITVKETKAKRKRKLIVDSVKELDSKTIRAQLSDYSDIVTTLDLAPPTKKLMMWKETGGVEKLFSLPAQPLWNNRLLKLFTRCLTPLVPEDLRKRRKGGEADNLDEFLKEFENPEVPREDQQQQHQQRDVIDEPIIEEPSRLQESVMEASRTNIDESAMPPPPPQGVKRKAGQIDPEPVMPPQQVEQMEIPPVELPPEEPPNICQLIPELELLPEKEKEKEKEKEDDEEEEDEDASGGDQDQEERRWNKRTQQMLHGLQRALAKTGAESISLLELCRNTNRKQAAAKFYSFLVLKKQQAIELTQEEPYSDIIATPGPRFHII

[2] = target: T1, SMC1/SMC3/SCC1 cohesin Trimer; assay: mass photometry; in solution; titration at constant cohesin Trimer (50 nM total protein, 12.6 ± 0.9 nM effective Trimer), STAG1 3 to 30 nM, six concentrations with 3 technical repeats each; incubated to equilibrium; molar fraction of the complex fitted to the Hill equation; settings: both partners purified

B1: STAG1 (natural protein, human, UniProt Q8WVM7 1-1258, looked up)
chain: MITSELPVLQDSTNETTAHSDAGSELEETEVKGKRKRGRPGRPPSTNKKPRKSPGEKSRIEAGIRGAGRGRANGHPQQNGEGEPVTLFEVVKLGKSAMQSVVDDWIESYKQDRDIALLDLINFFIQCSGCRGTVRIEMFRNMQNAEIIRKMTEEFDEDSGDYPLTMPGPQWKKFRSNFCEFIGVLIRQCQYSIIYDEYMMDTVISLLTGLSDSQVRAFRHTSTLAAMKLMTALVNVALNLSIHQDNTQRQYEAERNKMIGKRANERLELLLQKRKELQENQDEIENMMNSIFKGIFVHRYRDAIAEIRAICIEEIGVWMKMYSDAFLNDSYLKYVGWTLHDRQGEVRLKCLKALQSLYTNRELFPKLELFTNRFKDRIVSMTLDKEYDVAVEAIRLVTLILHGSEEALSNEDCENVYHLVYSAHRPVAVAAGEFLHKKLFSRHDPQAEEALAKRRGRNSPNGNLIRMLVLFFLESELHEHAAYLVDSLWESSQELLKDWECMTELLLEEPVQGEEAMSDRQESALIELMVCTIRQAAEAHPPVGRGTGKRVLTAKERKTQIDDRNKLTEHFIITLPMLLSKYSADAEKVANLLQIPQYFDLEIYSTGRMEKHLDALLKQIKFVVEKHVESDVLEACSKTYSILCSEEYTIQNRVDIARSQLIDEFVDRFNHSVEDLLQEGEEADDDDIYNVLSTLKRLTSFHNAHDLTKWDLFGNCYRLLKTGIEHGAMPEQIVVQALQCSHYSILWQLVKITDGSPSKEDLLVLRKTVKSFLAVCQQCLSNVNTPVKEQAFMLLCDLLMIFSHQLMTGGREGLQPLVFNPDTGLQSELLSFVMDHVFIDQDEENQSMEGDEEDEANKIEALHKRRNLLAAFSKLIIYDIVDMHAAADIFKHYMKYYNDYGDIIKETLSKTRQIDKIQCAKTLILSLQQLFNELVQEQGPNLDRTSAHVSGIKELARRFALTFGLDQIKTREAVATLHKDGIEFAFKYQNQKGQEYPPPNLAFLEVLSEFSSKLLRQDKKTVHSYLEKFLTEQMMERREDVWLPLISYRNSLVTGGEDDRMSVNSGSSSSKTSSVRNKKGRPPLHKKRVEDESLDNTWLNRTDTMIQTPGPLPAPQLTSTVLRENSRPMGDQIQEPESEHGSEPDFLHNPQMQISWLGQPKLEDLNRKDRTGMNYMKVRTGVRHAVRGLMEEDAEPIFEDVMMSSRSQLEDMNEEFEDTMVIDLPPSRNRRERAELRPDFFDSAAIIEDDSGFGMPMF
notes: human STAG1, a HAWK subunit of cohesin; measured at 148 ± 2 kDa by mass photometry; also called Scc3
Question: What does the source list for B1?
Answer: Kd [1]: 5.4 ± 1.7 nM; Kd [2]: 6.2 ± 0.7 nM
